Where “and” joins values, the source holds several entries; their conditions need not be identical. Equal values may be shown once. Each block holds one molecule with its values, some of them ahead of it.
Tests used:
[1] = biological target: adiponectin secreted from isolated rat primary adipocytes (rat (endogenous in primary adipocytes)); test: native gel or EMSA
native gel or EMSA [2] = biological target: the molecule itself; test: native gel or EMSA
[3] = biological target: the molecule itself; test: non-reducing denaturing SDS/PAGE
native gel or EMSA [4] = biological target: the molecule itself; test: native gel or EMSA; remark: listed apart in the source
SEC = biological target: the molecule itself; test: SEC

stoichiometry N [1]: 6 and 3
Molecule: adiponectin secreted from isolated rat primary adipocytes (natural protein)

B1: FLAG epitope-tagged mouse adiponectin (natural protein, UniProt Q60994 18-247, looked up)
chain: EDDVTTTEELAPALVPPPKGTCAGWMAGIPGHPGHNGTPGRDGRDGTPGEKGEKGDAGLLGPKGETGDVGMTGAEGPRGFPGTPGRKGEPGEAAYVYRSAFSVGLETRVTVPNVPIRFTKIFYNQQNHYDGSTGKFYCNIPGLYYFSYHITVYMKDVKVSLFKKDKAVLFTYDQYQEKNVDQASGSVLLHLEVGDQVWLQVYGDGDHNGLYADNVNDSTFTGFLLYHDTN
stoichiometry N (native gel or EMSA [2]): 6 and 3
stoichiometry N [3]: 2

B2: adiponectin of differentiated 3T3-L1 adipocytes (natural protein, mouse (endogenous in 3T3-L1), UniProt Q60994 18-247, looked up)
chain: B1 chain
stoichiometry N (native gel or EMSA [4]): 6 and 3

B3: adiponectin purified from bovine serum (natural protein, UniProt Q3Y5Z3 18-240, looked up)
chain: EDNMEDPPLPKGACAGWMAGIPGHPGHNGTPGRDGRDGTPGEKGEKGDPGLVGPKGDTGETGITGIEGPRGFPGTPGRKGEPGESAYVYRSAFSVGLERQVTVPNVPIRFTKIFYNQQNHYDGTTGKFLCNIPGLYYFSYHITVYLKDVKVSLYKNDKALLFTHDQFQDKNVDQASGSVLLYLEKGDQVWLQVYEGENHNGVYADNVNDSTFTGFLLYHNIVE
stoichiometry N (SEC): 6
